Reference: US20250361296A1 (BIOCYTOGEN PHARMACEUTICALS BEIJING, published 2025)

Columns and labels:
[1] = target: T1, human SIGLEC15 on CHO-S-hSIGLEC15 cells (human, UniProt Q6ZMC9 20-328); assay: flow cytometry (MFI) on CHO-S-hSIGLEC15 cells; antibody sample: pH 3.5 6 h
T1 sequence: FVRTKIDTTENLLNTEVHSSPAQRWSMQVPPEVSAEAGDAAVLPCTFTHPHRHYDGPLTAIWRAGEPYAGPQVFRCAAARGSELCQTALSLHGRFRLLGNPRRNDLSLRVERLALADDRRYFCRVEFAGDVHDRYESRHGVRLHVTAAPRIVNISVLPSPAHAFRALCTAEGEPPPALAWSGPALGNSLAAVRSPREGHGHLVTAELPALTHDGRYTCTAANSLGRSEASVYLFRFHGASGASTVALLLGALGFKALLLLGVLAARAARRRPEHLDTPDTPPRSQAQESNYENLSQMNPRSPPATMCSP
Description: (§1) In the activity detection experiment, 30 μL of CHO-S-hSIGLEC15 cells were added to the culture plate, and the antibody to be tested was added in a gradient dilution ([…]), and incubated at 4° C. for 30 min. The plate was washed with PBS, and diluted secondary antibody Anti-hIgG-Fc-Alex Flour 647 (RL1-H) (1:2000) was added, incubated at 4° C. for 30 min. The plate was washed once with PBS and the cells were resuspended for flow cytometry detection. MFI value was derived by FlowJo 7.6.1 analysis to calculate EC50.

[2] = target: T1, human SIGLEC15 on CHO-S-hSIGLEC15 cells; assay: flow cytometry (MFI) on CHO-S-hSIGLEC15 cells; antibody sample: pH 3.5 0 h
Description: as §1

[3] = target: T1, human SIGLEC15 on CHO-S-hSIGLEC15 cells; assay: flow cytometry (MFI) on CHO-S-hSIGLEC15 cells; antibody sample: 4° C. 7 d
Description: as §1

[4] = target: T1, human SIGLEC15 on CHO-S-hSIGLEC15 cells; assay: flow cytometry (MFI) on CHO-S-hSIGLEC15 cells; antibody sample: freeze 1
Description: as §1

[5] = target: T1, human SIGLEC15 on CHO-S-hSIGLEC15 cells; assay: flow cytometry (MFI) on CHO-S-hSIGLEC15 cells; antibody sample: 25° C. 7 d
Description: as §1

[6] = target: T1, human SIGLEC15 on CHO-S-hSIGLEC15 cells; assay: flow cytometry (MFI) on CHO-S-hSIGLEC15 cells; antibody sample: 0 d
Description: as §1

[7] = target: T1, human SIGLEC15 on CHO-S-hSIGLEC15 cells; assay: flow cytometry (MFI) on CHO-S-hSIGLEC15 cells; antibody sample: 40° C. 7 d
Description: as §1

[8] = target: T1, human SIGLEC15 on CHO-S-hSIGLEC15 cells; assay: flow cytometry (MFI) on CHO-S-hSIGLEC15 cells; antibody sample: freeze 10
Description: as §1

EC50 [1]: 2.05 µg/mL | EC50 [2]: 1.66 µg/mL | EC50 [3]: 1.63 µg/mL | EC50 [4]: 1.46 µg/mL | EC50 [5]: 1.64 µg/mL | EC50 [6]: 1.79 µg/mL | EC50 [7]: 1.55 µg/mL | EC50 [8]: 1.67 µg/mL
B1: one-armed anti-SIGLEC15 antibody 10C9-S, human IgG1-N297A (antibody)
heavy: not shown
chain: DKTHTCPPCPAPELLGGPSVFLFPPKPKDTLMISRTPEVTCVVVDVSHEDPEVKFNWYVDGVEVHNAKTKPREEQYASTYRVVSVLTVLHQDWLNGKEYKCKVSNKALPAPIEKTISKAKGQPREPQVCTLPPSREEMTKNQVSLSCAVKGFYPSDIAVEWESNGQPENNYKTTPPVLDSDGSFFLVSKLTVDKSRWQQGNVFSCSVMHEALHNHYTQKSLSLSPGK
light: DIQLTQSPLSSPVTLGQPASISCRSSQSLVNSDGETFLSWLQQRPGQPPRLLIYKISNRFSGVPDRFSGSGAGTDFTLKISRVEAEDVGVYYCMQATQFPHTFGQGTKLEIKRTVAAPSVFIFPPSDEQLKSGTASVVCLLNNFYPREAKVQWKVDNALQSGNSQESVTEQDSKDSTYSLSSTLTLSKADYEKHKVYACEVTHQGLSSPVTKSFNRGEC
notes: One-armed format; It has a full-length heavy chain with the knob (T366W), a single Fc fragment with the hole mutations (T366S, L368A, Y407V), and a full-length light chain
